# Experimental data from the RNAGym collection of RNA variant scans (doi:10.1073/pnas.2313332121).
# B1: TPR t1 (parent)
# chain: GACCAAUCUGCCCUCAGAGCUCGAGAACAUCUUCGGAUGCAGAGGAGGCAGGCUUCGGUGGCGCGAUAGCGCCAACGUCCUCAACCUCCAAUGCAUCCCACCACAUGAUGAUGCCUGAAGAGCCUUGGUUUUUUG
# Variants of: B1
# Assay: polymerase ribozyme fitness, log enrichment relative to wild type (log ratio); higher = more active; in vitro selection for triplet polymerase activity
# In short: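 Streptavidin-bead capture of gel-excised extended constructs, followed by RT-PCR, closed a single triplicate in vitro selection round. That round began by annealing PCR-built, transcribed mutant libraries of each subunit of a heterodimeric triplet polymerase ribozyme with a biotinylated primer, the partner subunit and triplets, then incubating them frozen at −7 °C. After Illumina sequencing of inputs and outputs, genotypes needed ≥10 input reads and ≥1 read per output. Fitness is the base-2 logarithm of genotype enrichment over wild-type enrichment, using inverse-variance-weighted replicate averages.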
row,Variant,polymerase ribozyme fitness (log ratio)
1,GCCCAAUCUGCCCUCAGAGCUCGAGAACAUCUUCGGAUGCAGAGGAGGCUGGCUUCGGUGGCGCGAUAGCGCCAACGUCCUCAACCUCCAAUGCAUCCCACCACAUGAUGAUGCCUGAAGAGCCUUGGUUUUUUG [A2C A50U],-2.44
2,GCCCAAUCUGCCCUCAGAGCUCGAGAACAUCUUCGGAUGCAGAGGAGGCAGGCUUCGGUGGCGCGAUAGCGCCAACGUCCUCUACCUCCAAUGCAUCCCACCACAUGAUGAUGCCUGAAGAGCCUUGGUUUUUUG [A2C A83U],-1.1
3,GCCCAAUCUGCCCUCAGAGCUCGAGAACAUCUUCGGAUGCAGAGGAGGCAGGCUUCGGUGUCGCGAUAGCGCCAACGUCCUCAACCUCCAAUGCAUCCCACCACAUGAUGAUGCCUGAAGAGCCUUGGUUUUUUG [A2C G61U],-1.66
4,GCCCAAUCUGCCCUCAGAGCUCGAGAACAUCUUCGGAUGCAGAGGAGGCAGGCUUCGGUGGUGCGAUAGCGCCAACGUCCUCAACCUCCAAUGCAUCCCACCACAUGAUAAUGCCUGAAGAGCCUUGGUUUUUUG [A2C C62U G110A],-3.07
5,GCCCCAUCUGCCCUCAGAGCUCGAGAACAUCUUCGGAUGCAGAGGAGGCAGGCUUCGGUGGAGCGAUAGCGCCAACGUCCUCAACCUCCAAUGCAUCCCACCACAUGAUGAUGCCUGAAGAGCCUUGCUUUUUUG [A2C A5C C62A G128C],-2.75
6,GCCCAAUCUGCCCUUAGAGCUCGAGAACAUCUUCGGAUGCAGAGGAGGCAGGCUUUGGUGGCGCGAUAGCGCCAACGUCCUCAACCUCCAAUGCAUCCCACCACAUGAUGAUGCCUGAAGAGCCUUGGCUUUUUG [A2C C15U C56U U129C],-1.75
7,GCCCAAUCUGCCCUCAGAGCUCGAGAACAUCUUCGGAUGCAGAGGAGGCAGGCUUCGGUGGCUCGAUAGCGCCAACGUCCUCAGCCUCCAAUGCAUCCCACCACAUGAUGAUGCCUGAAGAGCCUUGGUUGUUUG [A2C G63U A84G U131G],-4.08
8,GCCCAAUCUGCCCUCAGAGCUCGAGAACAUCUUCGGAUGCAGAGGAGGCAGGCUUCGGUGGCGCGAUAGCGCCAACGUCCUCAACCUCCAAUGCAUCCCAACACAUGAUGAUGCCUGAAGAGCCUUGGAUUUUUG [A2C C101A U129A],-2.79
9,GCGCAAUCUGCCCUCAGAGCUCGAGAACAUCUUCGGAUGCAGAGGAGGCAGGCUUCGGUGGCGCGAUAGCCCCAACGUCCUCAACCUCCAAUGCAUCCCACCACAUGAUGAUGCCUGAAGAGCCUUGGAUUUUUG [A2C C3G G71C U129A],-4.77
10,GCCCAAUCUGACCUCACAGCUCGAGAACAUCUUCGGAUGCAGAGGAGGCAGGCUUCGGUGGCGCGAUAGUGCCAACGUCCUCAACCUCCAAUGCAUCCCACCACAUGAUGAUGCCUGAAGAGGCUUGGUUUUUUG [A2C C11A G17C C70U C123G],-3.69
11,GCCCAAUCUGCCCUCAGAGCUCGAGAACAUCUUCGGAUGCAGAGGAGGCAGGCUUCGGUGGCGCGAUAGCGUCAACGUCCUCAACCUCCAAUGCAUCCCACCACAUGAUGAUGCCUGAAGAGCCUUGGUUUUUUG [A2C C72U],-2.38
12,GCCCAAUCUGCCCUCAGAGCUCGAGAACAUCUUCGGAUGCAGAGGAGGAAGGCUUCGGUGGCGCGAUAGCGCCAACGUCCUCAACCUCCAAUUCAUCCCACCACAUGAUAAUGCCUGAAGAGCCUUGGUUUUUUG [A2C C49A G93U G110A],-4.44
13,GCCCAAUCUGCCAUCAGAGCUCGAGAACAUCUUCGCAUGCAGAGGAGGCAGGCUUCGGUGGCGCGAUAGCGCCAACGUCCUCAACCUCCAAUGCAUCCCACCACAUGAUGAUGCCUGAAUAGCCUUGGUUUUUUG [A2C C13A G36C G120U],-1.59
14,GCCCAAUCUGCCCUCAGAGCUCGAGAACAUCUUCGGAUGCACAGGAGGCAGGCUUCGGUGGCGCGAUAGCGCCAACGUCCUCAACCUCCAAUGCAACCCACCACAUGAUGAUGCCUGAAGAGUCUUGGUUUUUUG [A2C G42C U96A C123U],-3.31
15,GCCCAAUCUGCGCUCAGAGCUCGAGAACAUCUUCGGAUGCAGAGGAGGCAGGCUUCGGUGGCGCGAUAGCGCCAACGUCCUCAACCUCCAAUGCAUCCCACCACAUGAUGAUGCCUGAAGAGCCUUGGUUUUUUG [A2C C12G],-1.09
16,GCCCAAUCUGCCCUCAGAGCUCGAGAACAUCUUCGGAUGCAUAGGAGGCAGGCUUCGGUGGCGCGAUAGCGCCAACGUCCUCAACCUCCAAUGCAUCCCACCACAUGAUGAUGCCUGAAGAGCCUUGGUUUUUUG [A2C G42U],-3.31
17,GCCCAAUCUGCCCUAAGAGCUCGAGACCAUAUUCGGAUGCAGAGGAGGCAUGCUUCGGUGGCGCGAUAGCGCCAACGUCCUCACCCUCCAAUGCAUCCGACCACAUGAUGAUGCCUGAAGUGCCUUGGUGUUUUG [A2C C15A A27C C31A G51U A84C C99G A121U U130G],-6.15
18,GCCCAAUCUGCCCUCAGAGCUCGAGAACAUCUUCGGAUGGAGAGGAGGCAGGCUUGGGUGGCGCGAUAGCGGCAACGUCCUCAACCUCCAAUGCAUCCCACCACAUGAUGAUGCCUGAAGAGCUUUGGUUUUUUG [A2C C40G C56G C72G C124U],-4.17
19,GCCCAAUCUGCCGUUAGAGCUCGAGAACAUCUUCGGAUGCAGAGGAGGCAGGCUUCGGUGGUGCGAUAGCGCCAACGUCCUCAACCUCCAAUGCAUCCCACCACAUGAUGAUGCCUGAAGAGCCUUGGUUUUUUG [A2C C13G C15U C62U],-4.93
20,GCGCAAUCUGCCCUCAGAGCUCGAGAACAUCUUCGGAUGCAGAGGAGGCAGUCUUCGGUAGCGCGAUAGCGCCAACGUCCUCAACCUCCAAUGCAUCCCACCACAUGAUGAUGCCUGAAGAGCCUUGGAUUUUUG [A2C C3G G52U G60A U129A],-5.23
21,GCCCAAUCUGCCCUCAGAGCUCGAGAACAUCUUCGGAUGCAGAGGAGGGAGGCUUCGGUGGCGCGAGAGCGCCAACGUCCUCAGCCUCCAAUGCAUCCCACCACAUGAUUAUGCCUGAAGAGCCUUGGUUUUUUG [A2C C49G U67G A84G G110U],-5.64

row,Variant,polymerase ribozyme fitness (log ratio)
1,GCCCAAUCUGCCCUCAGAACUCGAGAACCUCUUCGGAUGCGGUGGAGGCAGGCUUCGGUGGCGGGAUAGCGCCAACGUCCUCAACCUCCAAUGCAUCCCACCACAUGAUGAUACCUGAAGAGACUGGGUUUUUUG [A2C G19A A29C A41G A43U C64G G113A C123A U126G],-5.93
2,GCCCAAUCUGCGCUCAGAGCUCGAGAACAUCUUCGGAUGCAGAGGAGGCAGGCUUCGGUGGCGCGAUAGCGCCAACGUCCUCAACCUCCAAUGCAUCCCACCACAUGAUGAUGCAUGAAGAGCCAUGGUUUUUUG [A2C C12G C115A U125A],-2.05
3,GCUCAAUCUGCCCUCAGAGCUCGAGAACAUCUUCGGAUGCAGAGGAGGCAGGCUUCGGUGGCGCGAUAGCGCCAACGUCCUCAACCUCCAAUGCAUCCCACCACAUGAUGAUGCCUGAAGAGCCUUGGUUUUUUG [A2C C3U],-1.71
4,GCCCAAUCUGCCCUCAGAGCUCGAGAACAUCUUCGGAUGCAGAGGAGGCAGGCUUCGGUGGCGCGAUAGCGCCAACGUCCUCAACCUCCAAUGCAUCCCACCACCUGAUGAUGCCUGAAGAGCCUUGGUUUUUUG [A2C A105C],-4.23
5,GCCCAAUCUGCCCUCAGAGCUCGAGAACAUCUUCGGAUGCAGAGGAGGCAGCCUUCGGUGGCGCGAUAGCGCCAACGUCCUCAACCUCCAAUGCAUCCCACCACAUGAUGAUGCCUGAAGAGCCUUGGUUUUUUG [A2C G52C],-2.58
6,UACCAAUCUGCCCUCAGAGCUCGAGAACAUCUUCGGAUGCAGAGGAGGCAGGCUUCGGUGGCGCGAUAGCGCCAACGUCCUCAACCUCCAAUGCAUCCCACCACAUGAUGAUGCCUGAAGAGCCUUGGUUUUUUG [G1U],0.29
7,GCCCAAUCUGCCCUCAGAGCUCGGGAACCUCUUCGGAUGCAGAGGAUGCAGGCUUCGGUGGCGCGAUAGCGCCAACGUCCUCAACCUCCAAUGCAUCCCACCACAUGAUGAUGCCUGAAAAGCCUUGGUUUUUUG [A2C A24G A29C G47U G120A],-5.73
8,GCCCAAUCUGCCCUCAGAGGUCGAGAACAUCUUCGGAUGCAGAGGAGGCAGGCUUCGGUAGCGCGAUAGCGCCAACGUCCUCAACCUCCAAUGCAUCCCACCACAUGAUGACGCCUGAAGAGCCUUGGUUUUUUG [A2C C20G G60A U112C],-4.64
9,GCCCAAUCUGCUCUCAGAGCUCGAGAACAUCUUCGGAUGCAUAGGAGGCAGGCUUCGGUGGCGCGAUAGCGCCAACGUCCUCAUCCUCCAAUGAAUCCCACCACAUGAUGAUGCCUGAAGAGCCUUGGAUUUUUG [A2C C12U G42U A84U C94A U129A],-3.55
10,GCCCAAUCUGCCCUCAGAGCUCGAGAACAUCUUCGGAUUCAGAGGAGGCAGGCUUCGGUGGCGCGAUAGCGCCAACGUCCUCAACCUCCAAUGCAUCCCACCACAUGAUGAUGCCUGAAGAGCCUUGGUUUUUUG [A2C G39U],-2.12
11,GCCCAAUCUGCCCUCAGAGCUCGAGAACAUCUUCGGAUGCAGAGGACGCAGGCUUCGGUGGCGCGAUAGCGCCAACGUCCUCAACCUCCAAUGCAUCCCACCACAUGAUGAUGCCUGAAGAGGCUUGGUUUUUUG [A2C G47C C123G],-2.2
12,GCCCAAUCUGCCCUUAGAGCUCGAGAACAUCUUCGGAUGCAGAGGAGGCAGGCUUCGGUGGCGCGAUAGCGCCAACGUCCUCAACCUCCAAUGCAUCCCACCAUAUGAUGAUGCCUGAAGAGCCUUGGUUUUUUG [A2C C15U C104U],-2.51
13,GCCCAAUCUACCUUCAGAGCUCGAGAACAUCUUCGGAUGCAGAGGAGGCAGGCUUCGGUGGCGCGAUACCGCCAACGUCCUCAACCUCCAAUGCAUCCCACCACAUGAUGAUGCCUGAAGAGCCUUGGUUUUUUG [A2C G10A C13U G69C],-3.6
14,GCCCAAUCUGCCCUCAGAGCUCGAGAACAUCUUCGGAUGCAGAGGAGGCAGGCUUCGGUGGCGCGAUAGCGACAACGUCCUCAACCUCCAAUGCAUCCCACCACAUGAUGAUGCCUGAAUAGCCUUGGUUUUUUG [A2C C72A G120U],-1.37
15,GCCAAAUCUGCCCUCAGAGCUCGAGAACAUCUUCGGAUGCAGAGGAGGCAGGCUUCGGUGGCGCGAUAGCGCCAACGUCCUCAACCUCCAAUGCAUCCCACCACAUGAUGAUGCCUGAAAAGCCUUGGUUUUUUG [A2C C4A G120A],0.58
16,GCCCAAUCUGCCCUCAGAGCUCGAGAACAUCUUCGGAUGCAGACGAGGCAGGCUUCGGUGGCGCGAUAGCGCCAACGUCCUCAACCUCCAAUGCAUCCCACCACAUGAUGAUGCCUGAAGAGCCUUGGUUUUUUG [A2C G44C],-3.44
17,GCCCAAUCUGCCCUCAGAGCUCGAGAACAUCUUCGGAUGCAGAGGAGGCAGGCUUCGGUGGCGCGAUAGCGCCAACGUCCUCAACCUGCAAUGCAUCCCACCAAAUGAUGAGGCCUGAAGAGCCUUGGUUUUUUG [A2C C88G C104A U112G],-4.8
18,GCCCAAUCUGCCCUCAGAGCUCGAGAACAUCUUCGGUUGCAGAGGAGGCAGGCUUGGGUGGCGCGAUAACGCCAACGGCCUCAACCUCCAAUGCAUCCCACCACAUGAUGAUGCCUGAAUAGCCUUGGUUUUUUG [A2C A37U C56G G69A U78G G120U],-5.2
19,GCCCAAUCUGCGCUCAGAGCUCGAGAACAUCUUCGGAUGCAGAGGAGGCAGGCUUCGGUGGCGCGAUAUCGCCAACGUCCUCAACCUCCAAUGCAUCCCACCACAUGAUGAUGCCUGAAGAGCCUUGGUUUUUUG [A2C C12G G69U],0.12
20,GCCUAAUCAGCCCUCAGAGCUCGAGAACAUCUUCGGAUGCAGAGGAGGCAGGCUUCGGUGGCGCGAUAGCGCCAAUGUCCUCAACCUCCAAUGCAUCCCACCACAUGAUGAUGCCUGAAGAGCCUUGGUUUUUUG [A2C C4U U9A C76U],-0.884
21,GCCCAAUCUGCCCUCAGAGCUCGAGAACAUCUUCGGAUGCAGAGGAGGCAGGCUUCGGUGGCGCGAUAGCGCCAACGUCCUCAACCUCGAAUGCAUCCCACCACAUGAUGAUGCCUGAAGAGCCUUGGUUUUUUG [A2C C89G],-3.68
